Assay results as given in US20060241051A1 (Takeda / Millennium, published 2006).
Square brackets hold non-standard residues; d marks the D form. Ends that are not written are not given here. * marks the point of attachment. Propanoyl(3-(3-pyridyl)) = O=C(CCc1cccnc1)*; Arg(Me) = CNC(=N)NCCC[C@H](N)C(=O)O; d4Pal = N[C@H](Cc1ccncc1)C(=O)O; azaGly = NNC(=O)O

B1: Compound No. 305: des(1)-[D-Tyr2,D-Pya(4) 3,AzaGly7,Arg(Me)9]MS10 (peptide)
peptide: [dY][d4Pal]NSF[azaGly]L[Arg(Me)]F-NH2
modifications: N-terminus assumed
SMILES: CNC(=N)NCCC[C@H](NC(=O)[C@H](CC(C)C)NC(=O)NNC(=O)[C@H](Cc1ccccc1)NC(=O)[C@H](CO)NC(=O)[C@H](CC(N)=O)NC(=O)[C@@H](Cc1ccncc1)NC(=O)[C@H](N)Cc1ccc(O)cc1)C(=O)N[C@@H](Cc1ccccc1)C(N)=O
notes: also called KiSS305; KiSS1-305
B2: Compound No. 322: des(1-3)-3-Pyridylpropionyl-[AzaGly7,Arg(Me)9]MS10 (peptide)
peptide: {Propanoyl(3-(3-pyridyl))}-NSF[azaGly]L[Arg(Me)]F-NH2
SMILES: CNC(=N)NCCC[C@H](NC(=O)[C@H](CC(C)C)NC(=O)NNC(=O)[C@H](Cc1ccccc1)NC(=O)[C@H](CO)NC(=O)[C@H](CC(N)=O)NC(=O)CCc1cccnc1)C(=O)N[C@@H](Cc1ccccc1)C(N)=O
notes: also called KiSS322; KiSS1-322

Columns and labels:
[1] = molecular target: human OT7T175 (metastin receptor) (human) (UniProt Q969F8); assay: FMAT competition with Cy-5-labeled metastin (40-54), hOT7T175-expressed CHO cells
Sequence of human OT7T175 (metastin receptor) (human) (Q969F8 whole entry L364H): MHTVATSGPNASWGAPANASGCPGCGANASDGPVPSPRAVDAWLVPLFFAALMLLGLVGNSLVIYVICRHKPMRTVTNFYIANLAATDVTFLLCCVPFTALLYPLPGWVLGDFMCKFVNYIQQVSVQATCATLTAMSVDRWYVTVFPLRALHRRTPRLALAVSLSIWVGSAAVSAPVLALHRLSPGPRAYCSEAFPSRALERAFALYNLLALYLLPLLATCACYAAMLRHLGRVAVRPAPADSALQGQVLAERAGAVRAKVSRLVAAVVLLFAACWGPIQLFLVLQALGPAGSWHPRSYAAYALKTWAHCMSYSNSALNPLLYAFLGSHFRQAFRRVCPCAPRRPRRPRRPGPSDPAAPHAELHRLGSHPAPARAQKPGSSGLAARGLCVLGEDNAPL

[2] = molecular target: T1, human OT7T175 (metastin receptor) (human, UniProt Q969F8 1-398); assay: as above
T1 construct: expressed on CHO cells (hOT7T175-expressed CHO cells; hOT7T175/CHO); also called hOT7T175; h0T7T175
T1 sequence (Q969F8 whole entry L364H): as above

[3] = molecular target: T1, human OT7T175 (metastin receptor); assay: cell-based or functional assay
[4] = molecular target: T1, human OT7T175 (metastin receptor); assay: cell-based or functional assay; remark: listed apart in the source

Molecule | IC50 [1] | IC50 [2] | cell growth inhibition activity, IC50 [3] | intracellular Ca ion level-increasing activity (FLIPR) [4]
Compound No. 238: [D-Tyr1,D-Asn2,D-Trp3,AzaGly7,Arg(Me)9]MS10 (peptide) | 49 nM |  |  | 
B1 |  | 1.3 nM | 8.94 nM | 5 specific activity to metastin (1-54)
B2 |  | 54 nM | 71.9 nM | 1 specific activity to metastin (1-54)
